Reference: article PMC6872632, “BIK1 and ERECTA Play Opposing Roles in Both Leaf and Inflorescence Development in Arabidopsis” (Frontiers in Plant Science, 2019)

T1: BOTRYTIS-INDUCED KINASE1 (BIK1), His-tagged recombinant protein (Arabidopsis thaliana, UniProt O48814 1-395)
T1 construct: BOTRYTIS-INDUCED KINASE1 (BIK1), Arabidopsis thaliana, full-length ORF cloned into pET-28; source: E. coli BL21, purified (Ni-Sepharose beads)
T1 sequence (looked up): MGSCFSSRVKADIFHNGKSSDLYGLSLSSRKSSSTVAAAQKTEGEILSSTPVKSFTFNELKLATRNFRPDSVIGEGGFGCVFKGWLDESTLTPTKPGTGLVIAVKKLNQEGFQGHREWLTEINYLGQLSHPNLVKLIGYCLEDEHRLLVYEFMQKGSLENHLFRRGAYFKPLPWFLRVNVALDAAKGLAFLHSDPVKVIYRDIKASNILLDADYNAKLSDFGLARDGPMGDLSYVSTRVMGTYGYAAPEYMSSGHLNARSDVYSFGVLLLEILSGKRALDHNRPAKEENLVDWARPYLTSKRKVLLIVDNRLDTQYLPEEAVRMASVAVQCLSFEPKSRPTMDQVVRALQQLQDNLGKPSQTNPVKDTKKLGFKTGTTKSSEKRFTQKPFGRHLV


Target: T1, BOTRYTIS-INDUCED KINASE1 (BIK1), …
Assay: pull-down; 10 µg BIK1-His and 10 µg GST-ER/ERL1/ERL2-CD or GST with glutathione agarose beads, 25 mM Tris-HCl pH 7.5, 150 mM NaCl, 1 mM DTT, 3 h; eluted with 30 mM glutathione; BIK1-His detected with anti-His antibody
Conditions: both partners purified

| binding result | Binder |
| --- | --- |
| binds | ERL2 cytoplasmic domain, GST-tagged recombinant protein (domain or fragment, Arabidopsis thaliana, UniProt Q6XAT2 607-967, looked up, ERL2 (ER-LIKE2), Arabidopsis thaliana, truncated to the cytoplasmic domain (CD), in pGEX-4T-1; also called GST-ERL2-CD; source: E. coli BL21, purified (Glutathione Sepharose beads)) YKSKQQKPVLKGSSKQPEGSTKLVILHMDMAIHTFDDIMRVTENLDEKYIIGYGASSTVYKCTSKTSRPIAIKRIYNQYPSNFREFETELETIGSIRHRNIVSLHGYALSPFGNLLFYDYMENGSLWDLLHGPGKKVKLDWETRLKIAVGAAQGLAYLHHDCTPRIIHRDIKSSNILLDGNFEARLSDFGIAKSIPATKTYASTYVLGTIGYIDPEYARTSRLNEKSDIYSFGIVLLELLTGKKAVDNEANLHQMILSKADDNTVMEAVDAEVSVTCMDSGHIKKTFQLALLCTKRNPLERPTMQEVSRVLLSLVPSPPPKKLPSPAKVQEGEERRESHSSDTTTPQWFVQFREDISKSSL |
| binds | ERECTA (ER) cytoplasmic domain, GST-tagged recombinant protein (domain or fragment, Arabidopsis thaliana, UniProt Q42371 602-976, looked up, ERECTA (ER), Arabidopsis thaliana, truncated to the cytoplasmic domain (CD), in pGEX-4T-1; also called GST-ER-CD; ER-CD; source: E. coli BL21, purified (Glutathione Sepharose beads)) CRPHNPPPFLDGSLDKPVTYSTPKLVILHMNMALHVYEDIMRMTENLSEKYIIGHGASSTVYKCVLKNCKPVAIKRLYSHNPQSMKQFETELEMLSSIKHRNLVSLQAYSLSHLGSLLFYDYLENGSLWDLLHGPTKKKTLDWDTRLKIAYGAAQGLAYLHHDCSPRIIHRDVKSSNILLDKDLEARLTDFGIAKSLCVSKSHTSTYVMGTIGYIDPEYARTSRLTEKSDVYSYGIVLLELLTRRKAVDDESNLHHLIMSKTGNNEVMEMADPDITSTCKDLGVVKKVFQLALLCTKRQPNDRPTMHQVTRVLGSFMLSEQPPAATDTSATLAGSCYVDEYANLKTPHSVNCSSMSASDAQLFLRFGQVISQNSE |
| binds | ER-LIKE1 (ERL1) cytoplasmic domain, GST-tagged recombinant protein (domain or fragment, Arabidopsis thaliana, UniProt C0LGW6 604-966, looked up, ER-LIKE1 (ERL1), Arabidopsis thaliana, truncated to the cytoplasmic domain (CD), in pGEX-4T-1; also called GST-ERL1-CD; source: E. coli BL21, purified (Glutathione Sepharose beads)) YKSMQQKKILQGSSKQAEGLTKLVILHMDMAIHTFDDIMRVTENLNEKFIIGYGASSTVYKCALKSSRPIAIKRLYNQYPHNLREFETELETIGSIRHRNIVSLHGYALSPTGNLLFYDYMENGSLWDLLHGSLKKVKLDWETRLKIAVGAAQGLAYLHHDCTPRIIHRDIKSSNILLDENFEAHLSDFGIAKSIPASKTHASTYVLGTIGYIDPEYARTSRINEKSDIYSFGIVLLELLTGKKAVDNEANLHQLILSKADDNTVMEAVDPEVTVTCMDLGHIRKTFQLALLCTKRNPLERPTMLEVSRVLLSLVPSLQVAKKLPSLDHSTKKLQQENEVRNPDAEASQWFVQFREVISKSSI |
